# Reference: patent publication US20070135335
# Tested on: Beacon (recombinant, expressed as GST-Beacon in E. coli, GST tag cleaved off with thrombin)
# Sequence of GST-CLK2 (recombinant human CLK2 fused to glutathione S-transferase, pGEX4T-1) (chain, as listed by the source): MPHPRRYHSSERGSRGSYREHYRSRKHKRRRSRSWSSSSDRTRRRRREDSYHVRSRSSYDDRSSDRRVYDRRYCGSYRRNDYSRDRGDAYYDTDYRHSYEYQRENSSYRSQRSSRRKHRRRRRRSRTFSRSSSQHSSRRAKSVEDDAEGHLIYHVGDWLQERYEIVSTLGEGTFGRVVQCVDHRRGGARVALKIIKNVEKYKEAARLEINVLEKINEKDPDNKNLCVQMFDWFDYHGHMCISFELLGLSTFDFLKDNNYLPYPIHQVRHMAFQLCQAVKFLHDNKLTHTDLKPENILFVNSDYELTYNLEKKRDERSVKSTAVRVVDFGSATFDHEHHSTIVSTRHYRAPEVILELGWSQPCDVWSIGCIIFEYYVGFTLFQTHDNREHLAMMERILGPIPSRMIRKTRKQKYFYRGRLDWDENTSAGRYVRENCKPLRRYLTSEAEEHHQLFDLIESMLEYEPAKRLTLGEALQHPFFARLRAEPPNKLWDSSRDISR
# Sequence of GST-CLK4 (recombinant human CLK4 fused to glutathione S-transferase, pGEX4T-1) (chain, as listed by the source): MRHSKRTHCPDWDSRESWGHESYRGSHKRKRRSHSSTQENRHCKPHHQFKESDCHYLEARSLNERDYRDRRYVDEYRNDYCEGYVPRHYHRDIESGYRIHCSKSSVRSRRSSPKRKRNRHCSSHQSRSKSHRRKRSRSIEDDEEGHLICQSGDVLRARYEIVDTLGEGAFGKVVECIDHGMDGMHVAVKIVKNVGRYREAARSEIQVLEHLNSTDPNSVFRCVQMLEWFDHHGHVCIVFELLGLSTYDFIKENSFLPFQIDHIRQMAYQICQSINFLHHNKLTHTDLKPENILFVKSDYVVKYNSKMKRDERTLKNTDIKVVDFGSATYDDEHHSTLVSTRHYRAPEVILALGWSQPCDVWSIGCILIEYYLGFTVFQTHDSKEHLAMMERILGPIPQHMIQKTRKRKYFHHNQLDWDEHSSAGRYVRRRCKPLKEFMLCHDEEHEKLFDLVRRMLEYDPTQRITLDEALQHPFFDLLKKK
# Sequence of GST-CLK1 (recombinant human CLK1 fused to glutathione S-transferase, pGEX4T-1) (chain, as listed by the source): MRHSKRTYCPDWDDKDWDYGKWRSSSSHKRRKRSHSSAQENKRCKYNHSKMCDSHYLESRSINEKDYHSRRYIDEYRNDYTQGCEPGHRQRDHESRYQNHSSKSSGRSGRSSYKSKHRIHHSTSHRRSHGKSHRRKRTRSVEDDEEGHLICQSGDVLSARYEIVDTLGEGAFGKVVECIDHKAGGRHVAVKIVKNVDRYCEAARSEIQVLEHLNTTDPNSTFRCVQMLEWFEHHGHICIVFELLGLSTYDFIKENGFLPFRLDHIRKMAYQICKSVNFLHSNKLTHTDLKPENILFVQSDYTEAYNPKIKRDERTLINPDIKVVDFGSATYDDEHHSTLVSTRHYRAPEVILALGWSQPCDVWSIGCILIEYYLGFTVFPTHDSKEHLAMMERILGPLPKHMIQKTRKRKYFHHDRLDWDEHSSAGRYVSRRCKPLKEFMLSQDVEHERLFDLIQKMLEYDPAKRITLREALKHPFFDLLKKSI
row,Substance,phosphorylation of Beacon in kinase assay with [gamma-32P]-ATP
1,"GST-CLK1 (recombinant human CLK1 fused to glutathione S-transferase, pGEX4T-1)",Beacon was not phosphorylated by any of the CLKs
2,"GST-CLK2 (recombinant human CLK2 fused to glutathione S-transferase, pGEX4T-1)",Beacon was not phosphorylated by any of the CLKs
3,"GST-CLK4 (recombinant human CLK4 fused to glutathione S-transferase, pGEX4T-1)",Beacon was not phosphorylated by any of the CLKs
